Measured values reported in US9295682B2, “Adjuvant immunotherapy for the preventive, curative or palliative treatment of chronic systemic diseases such as cancer, of clinical manifestations associated with diseases like cachexia and correction of adverse effects of drugs such as immunosuppression, neutropenia and lymphopenia, comprising …” (priority 2009, dated 2016).

System: Lewis lung carcinoma (3LL)
Test: Lewis lung carcinoma (3LL) survival, 1st experiment (Table A)
Assay type: in vivo, C57B1/6 female mice
Conditions: 100 days; IM-2 0.5 mg/kg/day alone, IM-2 0.5 mg/kg + Il-2 0.05 μg/animal, or IL-2 0.1 μg/animal alone; i.p., 3 weekly cycles
Description: Animals: 3-week-old C57B1/6 female mice were used in all the experiments (Table A, Table B, Table C)
Tumor: Lewis lung carcinoma (3LL) was the tumor selected for all the in vivo assessments (Table A, Table B, Table C) in these experiments, with the cells maintained in culture medium and inoculated subcutaneously in the animals at the concentration of 6×10^5 cancer cells (3 LL) for each animal.
Treatments: All treatments began 24 hours after the inoculation of cancer cells.
Observation period: The animals were evaluated during an observation period of 100 days in the survival experiment.
A fourth batch of 20 animals (Group 4) inoculated with 3 LL cells (6×10^5 cells/animal), was treated with 0.5 mg/kg/day of the proteic aggregate of ammonium and magnesium phospholinoleate-palmitoleate anhydride (Table A—Group 4—IM-2) and Interleukin-12 (IL-12), 0.05 g/animal given jointly by intraperitoneal injections in 3 weekly cycles. The animals were followed up for 100 days.
A fifth batch of 20 animals (Table A—Group 5) inoculated with 3 LL cells (6×10^5 cells/animal) was treated with Interleukin-12 (IL-12), 0.1 μg/animal applied by intraperitoneal injection in 3 weekly cycles. The animals were followed up for 100 days, and the number of survivors was expressed in percentage.

B1: Interleukin-12 (IL-12) (protein, UniProt P29459 23-219; P29460 23-328, looked up)
Interleukin-12 subunit alpha: RNLPVATPDPGMFPCLHHSQNLLRAVSNMLQKARQTLEFYPCTSEEIDHEDITKDKTSTVEACLPLELTKNESCLNSRETSFITNGSCLASRKTSFMMALCLSSIYEDLKMYQVEFKTMNAKLLMDPKRQIFLDQNMLAVIDELMQALNFNSETVPQKSSLEEPDFYKTKIKLCILLHAFRIRAVTIDRVMSYLNAS
Interleukin-12 subunit beta: IWELKKDVYVVELDWYPDAPGEMVVLTCDTPEEDGITWTLDQSSEVLGSGKTLTIQVKEFGDAGQYTCHKGGEVLSHSLLLLHKKEDGIWSTDILKDQKEPKNKTFLRCEAKNYSGRFTCWWLTTISTDLTFSVKSSRGSSDPQGVTCGAATLSAERVRGDNKEYEYSVECQEDSACPAAEESLPIEVMVDAVHKLKYENYTSSFFIRDIIKPDPPKNLQLKPLKNSRQVEVSWEYPDTWSTPHSYFSLTFCVQVQGKSKREKKDRVFTDKTSATVICRKNASISVRAQDRYYSSSWSEWASVPCS
**Q.** B1 was tested. Which “% Survivors” value did it give?
**A.** The value was 50%.
